Square brackets hold non-standard residues; d marks the D form. βAla = NCCC(=O)O; Sar = CNCC(=O)O

The conditions of assay [1]: reported by Presza et al. J Clin Invest. 2011; cited from earlier work.
A further assay has as its target T1, human ferroportin (Homo sapiens, UniProt Q9NP59).
T1 construct: expressed in transfected cells
T1 sequence (Q9NP59 1-571): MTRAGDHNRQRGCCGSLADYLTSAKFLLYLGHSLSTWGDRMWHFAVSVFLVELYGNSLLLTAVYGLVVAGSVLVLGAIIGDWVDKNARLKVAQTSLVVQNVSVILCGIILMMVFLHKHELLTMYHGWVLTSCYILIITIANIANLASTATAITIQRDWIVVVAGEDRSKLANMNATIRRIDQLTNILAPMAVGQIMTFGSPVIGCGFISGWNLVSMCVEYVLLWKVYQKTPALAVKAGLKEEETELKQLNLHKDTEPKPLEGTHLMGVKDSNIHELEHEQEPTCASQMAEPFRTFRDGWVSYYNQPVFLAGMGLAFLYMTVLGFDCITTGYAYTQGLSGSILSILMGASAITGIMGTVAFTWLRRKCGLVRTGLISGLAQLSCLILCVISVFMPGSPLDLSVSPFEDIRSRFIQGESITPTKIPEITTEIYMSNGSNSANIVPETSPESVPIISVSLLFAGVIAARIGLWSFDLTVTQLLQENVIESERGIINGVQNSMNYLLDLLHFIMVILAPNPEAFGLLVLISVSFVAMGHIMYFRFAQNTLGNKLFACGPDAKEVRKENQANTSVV
It counts as cell-based. The conditions noted are these: Table 3. As to the method:
Peptide analogues were tested in vitro for induction of internalization of the human ferroportin protein. Following internalization, the […] are degraded. The assay measures a decrease in fluorescence of the receptor.
The cDNA encoding the human ferroportin (SLC40A1) was cloned from a cDNA clone from Origene (NM_014585). The DNA encoding the ferroportin was amplified by PCR using primers also encoding terminal restriction sites for subcloning, but without the termination codon. The ferroportin receptor was subcloned into a mammalian GFP expression vector containing a neomycin (G418) resistance marker in such that the reading frame of the ferroportin was fused in frame with the GFP protein. The fidelity of the DNA encoding the protein was confirmed by DNA sequencing. HEK293 cells were used for transfection of the ferroportin-GFP receptor expression plasmid. The cells were grown according to standard protocol in growth medium and transfected with the plasmids using Lipofectamine (manufacturer's protocol, Invitrogen). […] The cells were propagated and frozen in aliquots.
A retro inverse peptide is a peptide with a reversed sequence in all D amino acids. […] The EC50 of these reference compounds for ferroportin degradation was determined according to the activity assay described above.

Assay [2] addresses T2, human ferroportin (SLC40A1) fused to GFP (human, UniProt Q9NP59 1-571).
T2 sequence (looked up): T1 sequence (Q9NP59 1-571)
Description: cell-based or functional assay.

For the molecule “Hy-DPhe-DIle-DCys-DIle-DPro-DPhe-DHis-DThr-DAsp-NH2 [RI-Mini Hepcidin]”, in assay [1], the activity in vivo entry is reported as “highly active in vivo”. For the molecule DTHCPIAIF [compound 473], at human ferroportin, the “Ferroportin internalization assay EC50 (nM)” value was “Not Active”.

B1: CMPD No. 127 (peptide)
peptide: H-DTHF[Sar]CIIFGPRSKGWVCK-NH2
modifications: not fully specified (bridges); printed as Hy-DTHF-[Sarc]-CIIFGPRSKGWVCK-NH2; cysteine pairing not given here
For B1, the “Potency EC50” value in assay [2] is above 10 µM.

B2: CMPD No. 125 (peptide)
peptide: H-DTHFRCIIFGPRSKGWVCK-NH2
modifications: not fully specified (bridges); printed as Hy-DTHFRCIIFGPRSKGWVCK-NH2; cysteine pairing not given here
Regarding B2, in assay [2], the “Potency EC50” value was above 10 µM.

B3: CMPD No. 123 (peptide)
peptide: H-DTHFGCIIFGPRSKGWVCK-NH2
modifications: not fully specified (bridges); printed as Hy-DTHFGCIIFGPRSKGWVCK-NH2; cysteine pairing not given here
With B3, in assay [2], the “Potency EC50” value was above 10 µM.

B4: CMPD No. 131 (peptide)
peptide: H-DTHFKCIIFGPRSKGWVCK-NH2
modifications: not fully specified (bridges); printed as Hy-DTHFKCIIFGPRSKGWVCK-NH2; cysteine pairing not given here
Consider B4, for which, in assay [2], the “Potency EC50” value was above 10 µM.

B5: CMPD No. 129 (peptide)
peptide: H-DTHF[βAla]CIIFGPRSKGWVCK-NH2
modifications: not fully specified (bridges); printed as Hy-DTHF-[β-Ala]-CIIFGPRSKGWVCK-NH2; cysteine pairing not given here
Turning to B5, the “Potency EC50” value in assay [2] is above 10 µM.

B6: CMPD No. 205 (peptide)
peptide: DTHFPCIKFKPRSKGWVCK
modifications: not fully specified; IVA (isovaleric acid) on side chain of Lys 10; C-terminal amide
As for B6, the “Potency EC50” value in assay [2] was above 0.3 µM.

Source of the values: patent US20200017566A1 (priority 2014, published 2020).
